Assay results from patent CN116203146A (BEIJING DONGFANG BIOTECH CO LTD, dated 2023).
Read-outs that look alike come from different tables or passages of the source.

Key:
[1] = target: T1, 人单核细胞白血病细胞(THP-1)表面LILRB4 (human, UniProt Q8NHJ6 22-448); assay: cell-based or functional assay
[2] = target: T1, 人单核细胞白血病细胞(THP-1)表面LILRB4; assay: cell-based or functional assay; remark: listed apart in the source

IC50, inhibition of ARG1 secretion by THP-1 cells in the presence of ApoE (arginase activity kit) [1] | IC50, inhibition of ARG1 secretion by THP-1 cells in the presence of ApoE (arginase activity kit) [2] | Binder
23.9 µg/mL |  | MA-Ⅰ 鼠源抗LILRB4单克隆抗体 (mouse IgG1/Cκ) (antibody) heavy: not shown light: DIVMTQTTLSLPVSPGDQASISCRSSQSLAHSNGNTYLHWYLQKPGQSPKLLIYKVSNRFSGVPDRFSGSGSGTDFTLKISRVEAEDLGVYFCSQSTLVPTFGGGTKLEIKADAAPTVSIFPPSSEQLTSGGASVVCFLNNFYPKDINVKWKIDGSERQNGVLNSWTDQDSKDSTYSMSSTLTLTKDEYERHNSYTCEATHKTSTSPIVKSFNRNEC
 | 250 µg/mL | 人源化抗LILRB4单克隆抗体HA-Ⅱ (human IgG1/Cκ) (antibody, V domains shown) VH: EVQLVESGGGLVKPGGSLRLSCAASGFTFSSYTMSWVRQAPGKGLEWVATISSGGTYTYYPDSVKGRFTISRDNAKNSLYLQMNSLRAEDTAVYYCARDGYDGFDYWGQGTTVTVSS VL: DIVMTQTPLSLSVTPGQPASISCRSSQSLAHSNGNTYLHWYLQKPGQSPQLLIYKVSNRFSGVPDRFSGSGSGTDFTLKISRVEAEDVGVYFCSQSTHVPTFGGGTKVEIKR
 | 98.5 µg/mL | 人源化抗LILRB4单克隆抗体HA-Ⅲ (human IgG1/Cκ) (antibody, V domains shown) VH: EVQLVESGGGLVKPGGSLRLSCAASGFTFSSYTMSWVRQAPGKGLEWVATISSGGTYTYYPDSVKGRFTISRDNAKNSLYLQMNSLRAEDTAVYYCTRDGYDGFDYWGQGTTVTVSS VL: DIVMTQTPLSLSVTPGQPASISCRSSQSLAHSNGNTYLHWYLQKPGQSPKLLIYKVSNRFSGVPDRFSGSGSGTDFTLKISRVEAEDVGVYFCSQSTHVPTFGGGTKVEIKR
 | 31.2 µg/mL | 人源化抗LILRB4单克隆抗体HA-Ⅰ (human IgG1/Cκ) (antibody, V domains shown) VH: EVQLVESGGGLVKPGGSLRLSCAASGFTFSSYTMSWVRQAPGKGLEWVSTISSGGTYTYYPDSVKGRFTISRDNAKNSLYLQMNSLRAEDTAVYYCARDGYDGFDYWGQGTTVTVSS VL: DIVMTQTPLSLSVTPGQPASISCRSSQSLAHSNGNTYLHWYLQKPGQSPQLLIYKVSNRFSGVPDRFSGSGSGTDFTLKISRVEAEDVGVYYCSQSTHVPTFGGGTKVEIKR
46 µg/mL |  | MB-Ⅰ 鼠源抗LILRB4单克隆抗体 (mouse IgG1/Cκ) (antibody) heavy: QVQLQESGAELVKPGASVKLSCKASGYTFTNYWMHWVKQRPGQGLEWIGEINPSNGRTNYNEKFKTKATLTVDKSSSTAYMQLSSLTSEDSAVYYCARWGQLGLREGYYAVDYWGQGTSVTVSSAKTTPPSVYPLAPGSAAQTNSMVTLGCLVKGYFPEPVTVTWNSGSLSSGVHTFPAVLQSDLYTLSSSVTVPSSTWPSETVTCNVAHPASSTKVDKKIVPRDCGCKPCICTVPEVSSVFIFPPKPKDVLTITLTPKVTCVVVDISKDDPEVQFSWFVDDVEVHTAQTQPREEQFNSTFRSVSELPIMHQDWLNGKEFKCRVNSAAFPAPIEKTISKTKGRPKAPQVYTIPPPKEQMAKDKVSLTCMITDFFPEDITVEWQWNGQPAENYKNTQPIMDTDGSYFVYSKLNVQKSNWEAGNTFTCSVLHEGLHNHHTEKSLSHSPG light: DIVMTQSPSSLSASLGDRVTISCRASQDISNYLNWYQQKPDGTVKLLIYYTSRLHSGVPSRFSGSGSGTDYSLTISNLEQEDIATYFCQQGNTLPPTFGGGTKLEIKADAAPTVSIFPPSSEQLTSGGASVVCFLNNFYPKDINVKWKIDGSERQNGVLNSWTDQDSKDSTYSMSSTLTLTKDEYERHNSYTCEATHKTSTSPIVKSFNRNEC
